From the supplement of paper PMC10567573 come the findings set out here.

The labels stand for the following.
B1: TIA1 (parent)
chain: TYECRCIGEEKEMWNFGEKYARF
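Note: lentivirally expressed fusions sorted by FACS into six bins by GFP to DsRed ratio, PSI derived from sequencing read proportions per bin multiplied by bin number.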

Variants of B1 are the subject of the series. Put plainly: protein stability index of a GFP-peptide fusion (GPS, HEK-293T) (PSI 1-6); higher = more stable. Particulars: c terminus: native.
For the variant TYECRCIGEEKEMWNFGEKYAYF [R22Y], the protein stability index was 1.81.

Take TYECRCIGEEKEMWNFGEKYANF [R22N]: the protein stability index was found to be 3.1.

Regarding TYECRCIGEEKEMWNFGEKYADF [R22D], the protein stability index was determined as 3.77.

As to TYECRCIGEEKEMWNFGEKYAHF [R22H], the protein stability index was 2.82.

Regarding TYECRCIGEEKEMWNFGEKYAVF [R22V], the protein stability index is 2.84.

Consider TYECRCIGEEKEMWNFGEKYAKF [R22K], for which the protein stability index was determined as 3.59.

Take TYECRCIGEEKEMWNFGEKYATF [R22T]: the protein stability index was determined as 2.49.

Take TYECRCIGEEKEMWNFGEKYAPF [R22P]: the protein stability index is 1.92.

As for TYECLCIGEEKEMWNFGEKYARF [R5L], the protein stability index is 2.29.

For TYECQCIGEEKEMWNFGEKYARF [R5Q], the protein stability index is 1.73.

As to TYECACIGEEKEMWNFGEKYARF [R5A], the protein stability index came out at 1.66.

With TYECICIGEEKEMWNFGEKYARF [R5I], the protein stability index was 2.8.

Consider TYECGCIGEEKEMWNFGEKYARF [R5G], for which the protein stability index came to 2.93.

For the variant TYECPCIGEEKEMWNFGEKYARF [R5P], the protein stability index amounted to 3.48.

Turning to TYECTCIGEEKEMWNFGEKYARF [R5T], the protein stability index was 2.31.

For the variant TYECECIGEEKEMWNFGEKYARF [R5E], the protein stability index turned out to be 2.02.

Regarding TYECNCIGEEKEMWNFGEKYARF [R5N], the protein stability index was found to be 2.86.

For TYECDCIGEEKEMWNFGEKYARF [R5D], the protein stability index is 3.07.

For TYECRCIGDEKEMWNFGEKYARF [E9D], the protein stability index worked out at 2.28.

As for TYECRCIGYEKEMWNFGEKYARF [E9Y], the protein stability index was 1.85.

As to TYECRCIGTEKEMWNFGEKYARF [E9T], the protein stability index is 1.61.

With TYECRCIGVEKEMWNFGEKYARF [E9V], the protein stability index is 1.92.

Turning to TYECRCIGGEKEMWNFGEKYARF [E9G], the protein stability index worked out at 2.09.

For the variant TYECRCIGREKEMWNFGEKYARF [E9R], the protein stability index worked out at 1.88.

As to TYECRCIGQEKEMWNFGEKYARF [E9Q], the protein stability index is 2.46.

As for TYEHRCIGEEKEMWNFGEKYARF [C4H], the protein stability index came to 3.33.

With TYEQRCIGEEKEMWNFGEKYARF [C4Q], the protein stability index was 1.67.

With TYEMRCIGEEKEMWNFGEKYARF [C4M], the protein stability index stood at 2.62.

For TYEYRCIGEEKEMWNFGEKYARF [C4Y], the protein stability index was 1.93.

With TYEARCIGEEKEMWNFGEKYARF [C4A], the protein stability index worked out at 3.13.

Regarding TYELRCIGEEKEMWNFGEKYARF [C4L], the protein stability index came to 2.85.

As for TYEIRCIGEEKEMWNFGEKYARF [C4I], the protein stability index came out at 2.31.

With TYEVRCIGEEKEMWNFGEKYARF [C4V], the protein stability index was 1.88.

Turning to TYEERCIGEEKEMWNFGEKYARF [C4E], the protein stability index came out at 2.2.

Regarding TYECRCIGEEKEMWNFGEDYARF [K19D], the protein stability index worked out at 3.32.

In the case of TYECRCIGEEKEMWNFGETYARF [K19T], the protein stability index was 2.06.

As to TYECRCIGEEKEMWNFGEYYARF [K19Y], the protein stability index came out at 4.2.

Take TYECRCIGEEKEMWNFGEFYARF [K19F]: the protein stability index is 2.16.

TYECRCIGEEKEMWNFGEIYARF [K19I]: the protein stability index was found to be 1.62.

For TYECRCIGEEKEMWNFGERYARF [K19R], the protein stability index came to 2.44.

On to TYECRCIGEEKEMWNFGEVYARF [K19V], for which the protein stability index worked out at 1.76.

Turning to KYECRCIGEEKEMWNFGEKYARF [T1K], the protein stability index turned out to be 1.83.

For CYECRCIGEEKEMWNFGEKYARF [T1C], the protein stability index was determined as 1.23.

In the case of MYECRCIGEEKEMWNFGEKYARF [T1M], the protein stability index was 3.02.

Consider YYECRCIGEEKEMWNFGEKYARF [T1Y], for which the protein stability index worked out at 1.63.

Turning to DYECRCIGEEKEMWNFGEKYARF [T1D], the protein stability index worked out at 3.71.

As for TYECRCIGEEKEMWNNGEKYARF [F16N], the protein stability index was found to be 1.85.

For the variant TYECRCIGEEKEMWNEGEKYARF [F16E], the protein stability index came to 2.9.

With TYECRCIGEEKEMWNGGEKYARF [F16G], the protein stability index came to 2.29.

Consider TYECRCIGEEKEMWNLGEKYARF [F16L], for which the protein stability index is 1.74.

In the case of TYECRCIGEEKEMWNCGEKYARF [F16C], the protein stability index is 2.42.

TYECRCIGEEKEMWNDGEKYARF [F16D]: the protein stability index is 2.78.

Turning to TYECRCIGEEKEMWNYGEKYARF [F16Y], the protein stability index was determined as 2.2.

In the case of TYECRCIGEEKEMWNMGEKYARF [F16M], the protein stability index is 3.

With TYECRCIGEEKEMWNAGEKYARF [F16A], the protein stability index is 2.43.

For the variant TYECRCIGEEKEMWNPGEKYARF [F16P], the protein stability index amounted to 1.91.

Consider TYECRCIGEEKEMWNTGEKYARF [F16T], for which the protein stability index was found to be 3.

For the variant TYECRCIGEEKEMWNFGEKYARG [F23G], the protein stability index turned out to be 2.11.

On to TYECRCIGEEKEMWNFGEKYARL [F23L], for which the protein stability index came to 1.29.

For the variant TYECRCIGEEKEMWNFGEKYARW [F23W], the protein stability index is 2.64.

With TYECRCIGEEKEMWNFGEKYARA [F23A], the protein stability index came to 3.29.

Regarding TYECRCIGEEKEMWNFGEKYARK [F23K], the protein stability index stood at 3.29.

Take TYECRCIGEEKEMWNFGEKYARS [F23S]: the protein stability index was found to be 2.2.

As for TYECRCIGEEKEMWNFGEKYARI [F23I], the protein stability index was 1.59.

As to TYECRCIGEEKEMWNFGEKYART [F23T], the protein stability index was 1.87.

As for TYECRCIGEEKEMWNFGEKYARM [F23M], the protein stability index stood at 2.54.

On to TYECRCIGEEKEMWNFGEKYARD [F23D], for which the protein stability index was found to be 3.5.

For the variant TYECRCIGEEKEMWNFGEKSARF [Y20S], the protein stability index is 3.24.

On to TYECRCIGEEKEMWNFGEKWARF [Y20W], for which the protein stability index amounted to 2.31.

As for TYECRCIGEEKEMWNFGEKHARF [Y20H], the protein stability index was determined as 3.71.

Regarding TYECRCIGEEKEMWNFGEKQARF [Y20Q], the protein stability index was 4.

Consider TYECRCIGEEKEMWNFGEKVARF [Y20V], for which the protein stability index turned out to be 3.04.

For TYECRCIGEEKEMWNFGEKLARF [Y20L], the protein stability index was 1.54.

Regarding TYECRCIGEEKEMWNFGEKEARF [Y20E], the protein stability index stood at 3.6.

In the case of TYECRCIGEEKEMWNFGEKAARF [Y20A], the protein stability index came out at 2.58.

In the case of TYECRCIGEEKEMWNFGEKTARF [Y20T], the protein stability index came to 2.61.

Turning to TYECRCIGEEKEMWNFGEKCARF [Y20C], the protein stability index was 1.81.

As for TYECRCIGEEKELWNFGEKYARF [M13L], the protein stability index was 2.48.

TYECRCIGEEKEYWNFGEKYARF [M13Y]: the protein stability index is 1.56.

With TYECRCIGEEKEKWNFGEKYARF [M13K], the protein stability index came out at 1.87.

Take TYECRCIGEEKEAWNFGEKYARF [M13A]: the protein stability index came to 1.74.

For the variant TYECRCIGEEKEGWNFGEKYARF [M13G], the protein stability index amounted to 2.61.

With TYECRCIGEEKEFWNFGEKYARF [M13F], the protein stability index came to 1.23.

Take TYECRCIGEEKEDWNFGEKYARF [M13D]: the protein stability index worked out at 2.19.

TYECRCIGEEKEVWNFGEKYARF [M13V]: the protein stability index turned out to be 2.03.

With TYECRCIGEEKECWNFGEKYARF [M13C], the protein stability index was 2.14.

Regarding TYECRCIGEEKERWNFGEKYARF [M13R], the protein stability index stood at 2.11.

As for TYECRCIGEEKESWNFGEKYARF [M13S], the protein stability index amounted to 1.98.

Turning to TYECRCIGEEKENWNFGEKYARF [M13N], the protein stability index stood at 2.31.

For the variant TYECRCIGEEKEQWNFGEKYARF [M13Q], the protein stability index was 1.71.

On to TYECRSIGEEKEMWNFGEKYARF [C6S], for which the protein stability index is 3.8.

On to TYECRGIGEEKEMWNFGEKYARF [C6G], for which the protein stability index turned out to be 3.94.

TYECRQIGEEKEMWNFGEKYARF [C6Q]: the protein stability index was determined as 3.9.

Turning to TYECRHIGEEKEMWNFGEKYARF [C6H], the protein stability index came out at 3.75.

Regarding TYECRYIGEEKEMWNFGEKYARF [C6Y], the protein stability index is 2.14.

TYECRMIGEEKEMWNFGEKYARF [C6M]: the protein stability index was determined as 1.84.

As to TYECRWIGEEKEMWNFGEKYARF [C6W], the protein stability index is 1.53.
